B1: target 1 insA 3' of 21,insC 3' of 8 (mixed)
RNA 1: CACCCGUGCAAAAAUGCAGGGGUCUAAAACUGAGCGGAUAACCUCUCUAUGG
RNA 2: GGGAAUGGAUCCACAUCUACGAAUUCGUACCAAUAGAGAGGUUAUCCCGCUCACCGAGAUCGGAAGAGCACACGU
B2: target 1 insA 3' of 13,insG 3' of 7 (mixed)
RNA 1: CACCCGUGCAAAAAUGCAGGGGUCUAAAACUGAGCGGAUAACCUCUCUAUGG
RNA 2: GGGAAUGGAUCCACAUCUACGAAUUCGUACCAUAGAGAGAGUUAUCGCGCUCACCGAGAUCGGAAGAGCACACGU
B3: target 1 complement block 5-10 (mixed)
RNA 1: CACCCGUGCAAAAAUGCAGGGGUCUAAAACUGAGCGGAUAACCUCUCUAUGG
RNA 2: GGGAAUGGAUCCACAUCUACGAAUUCGUACCAUAGAGAGGUAUAGGCCUCACCGAGAUCGGAAGAGCACACGU
B4: target 1 insU 3' of 9,insG 3' of 6 (mixed)
RNA 1: CACCCGUGCAAAAAUGCAGGGGUCUAAAACUGAGCGGAUAACCUCUCUAUGG
RNA 2: GGGAAUGGAUCCACAUCUACGAAUUCGUACCAUAGAGAGGUUAUUCCGGCUCACCGAGAUCGGAAGAGCACACGU
B5: target 2 MT 5'PFS UGC 3'PFS AUC (mixed)
RNA 1: CACCCGUGCAAAAUUGCAGGGGUCUAAAACCUUCUCCAAAUUGUUUCAUCCU
RNA 2: GGGAAUGGAUCCACAUCUACGAAUUCUGCAGGAUGAAACAAUUUGGAGAAGAUCAGAUCGGAAGAGCACACGU
B6: target 2 MT 5'PFS GGU 3'PFS CUU (mixed)
RNA 1: CACCCGUGCAAAAUUGCAGGGGUCUAAAACCUUCUCCAAAUUGUUUCAUCCU
RNA 2: GGGAAUGGAUCCACAUCUACGAAUUCGGUAGGAUGAAACAAUUUGGAGAAGCUUAGAUCGGAAGAGCACACGU
B7: target 2 MT 5'PFS GUG 3'PFS AUG (mixed)
RNA 1: CACCCGUGCAAAAUUGCAGGGGUCUAAAACCUUCUCCAAAUUGUUUCAUCCU
RNA 2: GGGAAUGGAUCCACAUCUACGAAUUCGUGAGGAUGAAACAAUUUGGAGAAGAUGAGAUCGGAAGAGCACACGU
B8: target 2 MT 5'PFS GAA 3'PFS UCU (mixed)
RNA 1: CACCCGUGCAAAAUUGCAGGGGUCUAAAACCUUCUCCAAAUUGUUUCAUCCU
RNA 2: GGGAAUGGAUCCACAUCUACGAAUUCGAAAGGAUGAAACAAUUUGGAGAAGUCUAGAUCGGAAGAGCACACGU
B9: target 2 MT 5'PFS GAU 3'PFS UAC (mixed)
RNA 1: CACCCGUGCAAAAUUGCAGGGGUCUAAAACCUUCUCCAAAUUGUUUCAUCCU
RNA 2: GGGAAUGGAUCCACAUCUACGAAUUCGAUAGGAUGAAACAAUUUGGAGAAGUACAGAUCGGAAGAGCACACGU
B10: target 2 MT 5'PFS UUG 3'PFS UGU (mixed)
RNA 1: CACCCGUGCAAAAUUGCAGGGGUCUAAAACCUUCUCCAAAUUGUUUCAUCCU
RNA 2: GGGAAUGGAUCCACAUCUACGAAUUCUUGAGGAUGAAACAAUUUGGAGAAGUGUAGAUCGGAAGAGCACACGU
B11: target 2 MT 5'PFS GCC 3'PFS AAA (mixed)
RNA 1: CACCCGUGCAAAAUUGCAGGGGUCUAAAACCUUCUCCAAAUUGUUUCAUCCU
RNA 2: GGGAAUGGAUCCACAUCUACGAAUUCGCCAGGAUGAAACAAUUUGGAGAAGAAAAGAUCGGAAGAGCACACGU
B12: target 2 MT 5'PFS UGC 3'PFS AUA (mixed)
RNA 1: CACCCGUGCAAAAUUGCAGGGGUCUAAAACCUUCUCCAAAUUGUUUCAUCCU
RNA 2: GGGAAUGGAUCCACAUCUACGAAUUCUGCAGGAUGAAACAAUUUGGAGAAGAUAAGAUCGGAAGAGCACACGU
B13: target 2 MT 5'PFS GUG 3'PFS AUC (mixed)
RNA 1: CACCCGUGCAAAAUUGCAGGGGUCUAAAACCUUCUCCAAAUUGUUUCAUCCU
RNA 2: GGGAAUGGAUCCACAUCUACGAAUUCGUGAGGAUGAAACAAUUUGGAGAAGAUCAGAUCGGAAGAGCACACGU
B14: target 2 MT 5'PFS GUG 3'PFS UUC (mixed)
RNA 1: CACCCGUGCAAAAUUGCAGGGGUCUAAAACCUUCUCCAAAUUGUUUCAUCCU
RNA 2: GGGAAUGGAUCCACAUCUACGAAUUCGUGAGGAUGAAACAAUUUGGAGAAGUUCAGAUCGGAAGAGCACACGU
B15: target 2 MT 5'PFS GUG 3'PFS AUU (mixed)
RNA 1: CACCCGUGCAAAAUUGCAGGGGUCUAAAACCUUCUCCAAAUUGUUUCAUCCU
RNA 2: GGGAAUGGAUCCACAUCUACGAAUUCGUGAGGAUGAAACAAUUUGGAGAAGAUUAGAUCGGAAGAGCACACGU
B16: target 2 MT 5'PFS GUG 3'PFS AUA (mixed)
RNA 1: CACCCGUGCAAAAUUGCAGGGGUCUAAAACCUUCUCCAAAUUGUUUCAUCCU
RNA 2: GGGAAUGGAUCCACAUCUACGAAUUCGUGAGGAUGAAACAAUUUGGAGAAGAUAAGAUCGGAAGAGCACACGU
B17: target 2 MT 5'PFS GAU 3'PFS UAA (mixed)
RNA 1: CACCCGUGCAAAAUUGCAGGGGUCUAAAACCUUCUCCAAAUUGUUUCAUCCU
RNA 2: GGGAAUGGAUCCACAUCUACGAAUUCGAUAGGAUGAAACAAUUUGGAGAAGUAAAGAUCGGAAGAGCACACGU
B18: target 2 MT 5'PFS GAU 3'PFS UAG (mixed)
RNA 1: CACCCGUGCAAAAUUGCAGGGGUCUAAAACCUUCUCCAAAUUGUUUCAUCCU
RNA 2: GGGAAUGGAUCCACAUCUACGAAUUCGAUAGGAUGAAACAAUUUGGAGAAGUAGAGAUCGGAAGAGCACACGU
B19: target 2 MT 5'PFS CAG 3'PFS UAC (mixed)
RNA 1: CACCCGUGCAAAAUUGCAGGGGUCUAAAACCUUCUCCAAAUUGUUUCAUCCU
RNA 2: GGGAAUGGAUCCACAUCUACGAAUUCCAGAGGAUGAAACAAUUUGGAGAAGUACAGAUCGGAAGAGCACACGU
B20: target 2 MT 5'PFS GAG 3'PFS UUC (mixed)
RNA 1: CACCCGUGCAAAAUUGCAGGGGUCUAAAACCUUCUCCAAAUUGUUUCAUCCU
RNA 2: GGGAAUGGAUCCACAUCUACGAAUUCGAGAGGAUGAAACAAUUUGGAGAAGUUCAGAUCGGAAGAGCACACGU
B21: target 2 MT 5'PFS CCU 3'PFS CCC (mixed)
RNA 1: CACCCGUGCAAAAUUGCAGGGGUCUAAAACCUUCUCCAAAUUGUUUCAUCCU
RNA 2: GGGAAUGGAUCCACAUCUACGAAUUCCCUAGGAUGAAACAAUUUGGAGAAGCCCAGAUCGGAAGAGCACACGU
B22: target 2 MT 5'PFS AUG 3'PFS AUG (mixed)
RNA 1: CACCCGUGCAAAAUUGCAGGGGUCUAAAACCUUCUCCAAAUUGUUUCAUCCU
RNA 2: GGGAAUGGAUCCACAUCUACGAAUUCAUGAGGAUGAAACAAUUUGGAGAAGAUGAGAUCGGAAGAGCACACGU
B23: target 2 MT 5'PFS UGC 3'PFS AUG (mixed)
RNA 1: CACCCGUGCAAAAUUGCAGGGGUCUAAAACCUUCUCCAAAUUGUUUCAUCCU
RNA 2: GGGAAUGGAUCCACAUCUACGAAUUCUGCAGGAUGAAACAAUUUGGAGAAGAUGAGAUCGGAAGAGCACACGU
B24: target 2 MT 5'PFS GCU 3'PFS UGC (mixed)
RNA 1: CACCCGUGCAAAAUUGCAGGGGUCUAAAACCUUCUCCAAAUUGUUUCAUCCU
RNA 2: GGGAAUGGAUCCACAUCUACGAAUUCGCUAGGAUGAAACAAUUUGGAGAAGUGCAGAUCGGAAGAGCACACGU
B25: target 2 MT 5'PFS GUG 3'PFS UUA (mixed)
RNA 1: CACCCGUGCAAAAUUGCAGGGGUCUAAAACCUUCUCCAAAUUGUUUCAUCCU
RNA 2: GGGAAUGGAUCCACAUCUACGAAUUCGUGAGGAUGAAACAAUUUGGAGAAGUUAAGAUCGGAAGAGCACACGU
B26: target 2 MT 5'PFS GCC 3'PFS AAC (mixed)
RNA 1: CACCCGUGCAAAAUUGCAGGGGUCUAAAACCUUCUCCAAAUUGUUUCAUCCU
RNA 2: GGGAAUGGAUCCACAUCUACGAAUUCGCCAGGAUGAAACAAUUUGGAGAAGAACAGAUCGGAAGAGCACACGU
B27: target 2 MT 5'PFS GCU 3'PFS UGU (mixed)
RNA 1: CACCCGUGCAAAAUUGCAGGGGUCUAAAACCUUCUCCAAAUUGUUUCAUCCU
RNA 2: GGGAAUGGAUCCACAUCUACGAAUUCGCUAGGAUGAAACAAUUUGGAGAAGUGUAGAUCGGAAGAGCACACGU

The target in this series is T1, EsCas13d, nuclease-dead (Eubacterium siraeum, UniProt B0MS50, R295A;H300A;R849A;H854A).
T1 sequence: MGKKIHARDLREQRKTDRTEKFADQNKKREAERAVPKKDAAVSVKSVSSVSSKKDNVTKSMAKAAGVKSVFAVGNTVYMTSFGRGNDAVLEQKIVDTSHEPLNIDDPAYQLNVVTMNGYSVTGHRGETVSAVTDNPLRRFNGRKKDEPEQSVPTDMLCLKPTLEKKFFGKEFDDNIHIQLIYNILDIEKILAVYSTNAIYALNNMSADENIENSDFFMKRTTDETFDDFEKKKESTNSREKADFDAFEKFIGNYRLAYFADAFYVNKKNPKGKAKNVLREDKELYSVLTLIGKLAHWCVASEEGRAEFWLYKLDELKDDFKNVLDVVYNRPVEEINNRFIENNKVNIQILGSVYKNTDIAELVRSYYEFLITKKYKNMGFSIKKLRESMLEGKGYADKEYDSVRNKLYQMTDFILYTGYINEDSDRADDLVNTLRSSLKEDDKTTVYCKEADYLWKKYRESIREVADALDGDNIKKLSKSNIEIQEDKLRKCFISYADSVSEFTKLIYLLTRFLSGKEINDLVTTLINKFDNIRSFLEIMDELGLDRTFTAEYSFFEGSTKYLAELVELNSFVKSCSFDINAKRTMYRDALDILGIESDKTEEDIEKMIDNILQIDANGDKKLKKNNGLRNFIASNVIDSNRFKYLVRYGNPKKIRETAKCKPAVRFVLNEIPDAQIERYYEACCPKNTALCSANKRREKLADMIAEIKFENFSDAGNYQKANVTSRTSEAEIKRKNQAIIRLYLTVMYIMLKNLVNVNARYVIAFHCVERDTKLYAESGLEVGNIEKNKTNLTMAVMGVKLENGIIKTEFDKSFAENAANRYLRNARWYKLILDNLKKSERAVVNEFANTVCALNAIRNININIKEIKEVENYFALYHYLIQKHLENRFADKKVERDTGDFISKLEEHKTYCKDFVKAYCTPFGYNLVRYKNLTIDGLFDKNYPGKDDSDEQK
Put plainly: crRNA (strand 1, pre-loaded); Mg2+; 40 mM Tris-HCl pH 7.5, 150 mM NaCl, 6 mM MgCl2, 1 mM DTT, 0.1% Tween-20, 0.2 mg/ml BSA; 25 C; 10 min per concentration, then washed. The conditions noted are these: tags: His6-TwinStrep-SUMO cleaved; N-terminal SNAP kept (SNAP-Surface 488); label: 3' end held by stalled T7 RNA polymerase.
As to B1, binding was characterised by a dissociation constant (Kd) of 21.5 ± 1.1 nM.

As for B2, the Kd was found to be 4.48 ± 0.22 nM.

The molecule B3 came in with a Kd of 14.5 ± 0.7 nM.

Consider B4, for which the Kd worked out at 12.1 ± 1.4 nM.

Regarding B5, the Kd was determined as 33 ± 7 nM.

Molecule B6 registered a Kd of 16.7 ± 1.3 nM.

With B7, the affinity, expressed as Kd, was 13.8 ± 1.3 nM.

B8 gave a Kd of 30 ± 9 nM.

As to B9, the Kd was determined as 16 ± 3.4 nM.

The molecule B10 had a Kd of 16.8 ± 1.9 nM.

With B11, the affinity, expressed as Kd, was 11.9 ± 3.4 nM.

With B12, the Kd was 28 ± 9 nM.

With B13, the Kd is 10.8 ± 0.8 nM.

Molecule B14 came in with a Kd of 27 ± 4 nM.

On to B15, for which the Kd worked out at 11.3 ± 0.9 nM.

Take B16: the Kd is 11.3 ± 1.5 nM.

In the case of B17, the affinity, expressed as Kd, was 12 ± 4 nM.

Turning to B18, the Kd worked out at 13.4 ± 2.7 nM.

B19 registered a Kd of 5.3 ± 1 nM.

B20 gave a Kd of 15.7 ± 2.5 nM.

Consider B21, for which the Kd worked out at 5.3 ± 2 nM.

In turn, B22 had a Kd of 9.9 ± 1.4 nM.

The molecule B23 gave a Kd of 28 ± 6 nM.

With B24, the affinity, expressed as Kd, was 12.9 ± 2.1 nM.

With B25, the Kd came out at 22.5 ± 3.2 nM.

Molecule B26 had a Kd of 17 ± 5 nM.

Regarding B27, binding was characterised by a dissociation constant (Kd) of 17.7 ± 2.7 nM.

Broadly, the Kd is the free concentration of one partner at which half of the binding sites on the other are occupied at equilibrium, for simple one-to-one binding.

Source of the values: article PMC10786891, “Massively parallel profiling of RNA-targeting CRISPR-Cas13d”.
